According to article PMC4861216:
Where “and” joins values, the source holds several entries; their conditions need not be identical. Equal entries are not always repeated.

Molecular target: protamine-oligonucleotide nanoparticles (proticles) (salmon)
Assay: co-sedimentation

percent of added apoA-I bound (5 ug apoA-I/10 ug ON): 80%
stoichiometry N (apoA-I molecules per nanoparticle): 14000 and 15000
Substance: apolipoprotein A-I (from UniProt P02647 19-267) (natural protein)
